Square brackets hold non-standard residues; d marks the D form. Ends that are not written are not given here. Hyp = O=C(O)[C@@H]1C[C@@H](O)CN1
Tests used:
Assay in all cases: ITC
[1] = biological target: T1, ecdTDR F279/F281 double alanine mutant (Arabidopsis thaliana, UniProt Q9FII5 30-642, F279 to alanine | F281 to alanine)
T1 sequence: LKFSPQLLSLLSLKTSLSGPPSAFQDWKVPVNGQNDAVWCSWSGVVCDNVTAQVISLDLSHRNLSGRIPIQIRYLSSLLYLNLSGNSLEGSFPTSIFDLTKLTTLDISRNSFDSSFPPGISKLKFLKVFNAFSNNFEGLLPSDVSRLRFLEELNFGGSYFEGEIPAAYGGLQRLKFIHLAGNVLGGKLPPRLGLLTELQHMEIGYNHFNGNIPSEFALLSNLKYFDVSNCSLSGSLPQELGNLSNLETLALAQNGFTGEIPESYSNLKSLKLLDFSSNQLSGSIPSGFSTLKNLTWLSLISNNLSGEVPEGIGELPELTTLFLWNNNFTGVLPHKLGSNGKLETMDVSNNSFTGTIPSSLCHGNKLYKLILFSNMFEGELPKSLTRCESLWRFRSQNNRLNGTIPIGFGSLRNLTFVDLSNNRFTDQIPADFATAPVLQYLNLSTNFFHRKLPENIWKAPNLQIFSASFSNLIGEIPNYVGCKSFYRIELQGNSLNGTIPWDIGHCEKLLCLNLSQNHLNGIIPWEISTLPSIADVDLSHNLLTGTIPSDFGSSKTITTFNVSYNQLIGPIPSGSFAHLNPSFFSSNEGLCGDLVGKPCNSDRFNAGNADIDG

[2] = biological target: T2, ecdTDR F279 alanine mutant (Arabidopsis thaliana, UniProt Q9FII5 30-642, alanine substitution of F279)
T2 sequence: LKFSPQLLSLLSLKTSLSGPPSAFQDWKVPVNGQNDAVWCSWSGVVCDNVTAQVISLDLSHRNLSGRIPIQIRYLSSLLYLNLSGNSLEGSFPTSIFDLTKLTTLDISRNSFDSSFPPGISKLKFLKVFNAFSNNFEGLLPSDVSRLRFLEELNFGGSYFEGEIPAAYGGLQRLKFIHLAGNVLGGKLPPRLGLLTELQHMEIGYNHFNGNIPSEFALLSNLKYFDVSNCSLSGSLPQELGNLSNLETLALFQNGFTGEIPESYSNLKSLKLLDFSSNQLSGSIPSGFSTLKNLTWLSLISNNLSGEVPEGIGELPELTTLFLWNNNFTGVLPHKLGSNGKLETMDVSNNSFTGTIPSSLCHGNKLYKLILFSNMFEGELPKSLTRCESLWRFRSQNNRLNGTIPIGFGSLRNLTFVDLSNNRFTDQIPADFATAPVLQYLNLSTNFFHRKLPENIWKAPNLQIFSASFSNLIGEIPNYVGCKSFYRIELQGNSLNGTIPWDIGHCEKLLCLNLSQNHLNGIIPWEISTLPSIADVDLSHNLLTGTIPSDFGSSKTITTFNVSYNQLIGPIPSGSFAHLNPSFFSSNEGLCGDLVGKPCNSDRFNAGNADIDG

[3] = biological target: T3, ecdTDR Y234 alanine mutant (Arabidopsis thaliana, UniProt Q9FII5 30-642, alanine substitution of Y234)
T3 sequence: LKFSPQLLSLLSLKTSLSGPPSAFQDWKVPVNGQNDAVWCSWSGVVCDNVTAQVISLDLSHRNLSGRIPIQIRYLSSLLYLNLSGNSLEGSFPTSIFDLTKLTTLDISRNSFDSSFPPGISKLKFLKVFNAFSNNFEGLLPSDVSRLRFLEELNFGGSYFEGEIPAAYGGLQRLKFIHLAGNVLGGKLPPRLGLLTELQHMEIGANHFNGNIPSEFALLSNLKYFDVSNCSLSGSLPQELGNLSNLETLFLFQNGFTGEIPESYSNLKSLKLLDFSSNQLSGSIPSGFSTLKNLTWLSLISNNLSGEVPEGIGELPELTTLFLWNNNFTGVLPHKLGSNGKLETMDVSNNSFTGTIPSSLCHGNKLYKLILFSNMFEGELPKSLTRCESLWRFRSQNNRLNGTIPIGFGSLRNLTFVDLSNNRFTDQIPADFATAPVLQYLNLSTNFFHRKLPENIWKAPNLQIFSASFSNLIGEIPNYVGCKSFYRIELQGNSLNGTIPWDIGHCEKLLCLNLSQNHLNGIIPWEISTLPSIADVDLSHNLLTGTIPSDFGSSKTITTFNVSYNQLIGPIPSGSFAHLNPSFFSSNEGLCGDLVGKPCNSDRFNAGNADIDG

ecdTDR S305A mutant = biological target: T4, ecdTDR S305A mutant (Arabidopsis thaliana, UniProt Q9FII5 30-642, S305A)
T4 sequence: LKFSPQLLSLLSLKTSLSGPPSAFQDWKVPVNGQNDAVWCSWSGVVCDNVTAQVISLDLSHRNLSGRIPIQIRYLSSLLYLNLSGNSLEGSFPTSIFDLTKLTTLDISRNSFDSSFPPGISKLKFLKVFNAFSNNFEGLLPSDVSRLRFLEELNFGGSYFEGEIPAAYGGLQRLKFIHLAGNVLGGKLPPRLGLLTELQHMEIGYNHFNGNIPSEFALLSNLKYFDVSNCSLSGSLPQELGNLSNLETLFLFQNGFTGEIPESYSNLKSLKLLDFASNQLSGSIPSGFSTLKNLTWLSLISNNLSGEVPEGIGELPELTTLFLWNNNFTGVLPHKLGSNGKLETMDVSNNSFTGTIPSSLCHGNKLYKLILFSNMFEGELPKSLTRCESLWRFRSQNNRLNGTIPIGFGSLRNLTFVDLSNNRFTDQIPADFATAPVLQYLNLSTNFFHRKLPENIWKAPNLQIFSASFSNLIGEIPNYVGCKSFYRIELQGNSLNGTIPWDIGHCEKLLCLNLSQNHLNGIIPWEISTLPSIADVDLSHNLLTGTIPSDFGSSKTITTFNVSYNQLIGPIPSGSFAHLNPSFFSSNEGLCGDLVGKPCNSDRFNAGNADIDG

B1: Tracheary Element Differentiation Inhibitory Factor (TDIF) peptide (peptide)
peptide: HEV[Hyp]SG[Hyp]NPISN
notes: TDIF, the 12-residue CLE peptide processed from CLE41 and CLE44 of A. thaliana; printed as HEV(Hyp)SG(Hyp)NPISN; numbers count on: the 12-residue peptide; CLE44 encodes the same peptide; also called wild type TDIF; wtTDIF; source: synthetic peptide (peptide 2.0)
B1 showed a Kd [1] of 887 nM, a Kd [2] of 307 nM and a Kd [3] of 1650 nM. It also gave a Kd (ecdTDR S305A mutant) of 455 nM.

— PMC5383425, “Differential CLE peptide perception by plant receptors implicated from structural and functional analyses of TDIF-TDR interactions” (PLoS ONE, 2017)
